Measurements: patent publication US8242083B2, “Kinase substrates” (PerkinElmer Health Sciences, Inc., priority 2008, dated 2012)

Key:
Assay type in all cases: biochemical
[1] = biological target: T1, MER (Homo sapiens, UniProt Q12866); assay: TR-FRET kinase assay, MER; settings: Kinase Concentration 0.25 nM; 50 nM ULight-labeled substrate, 200 micromolar ATP, 2 hours
T1 sequence (Q12866 21-999): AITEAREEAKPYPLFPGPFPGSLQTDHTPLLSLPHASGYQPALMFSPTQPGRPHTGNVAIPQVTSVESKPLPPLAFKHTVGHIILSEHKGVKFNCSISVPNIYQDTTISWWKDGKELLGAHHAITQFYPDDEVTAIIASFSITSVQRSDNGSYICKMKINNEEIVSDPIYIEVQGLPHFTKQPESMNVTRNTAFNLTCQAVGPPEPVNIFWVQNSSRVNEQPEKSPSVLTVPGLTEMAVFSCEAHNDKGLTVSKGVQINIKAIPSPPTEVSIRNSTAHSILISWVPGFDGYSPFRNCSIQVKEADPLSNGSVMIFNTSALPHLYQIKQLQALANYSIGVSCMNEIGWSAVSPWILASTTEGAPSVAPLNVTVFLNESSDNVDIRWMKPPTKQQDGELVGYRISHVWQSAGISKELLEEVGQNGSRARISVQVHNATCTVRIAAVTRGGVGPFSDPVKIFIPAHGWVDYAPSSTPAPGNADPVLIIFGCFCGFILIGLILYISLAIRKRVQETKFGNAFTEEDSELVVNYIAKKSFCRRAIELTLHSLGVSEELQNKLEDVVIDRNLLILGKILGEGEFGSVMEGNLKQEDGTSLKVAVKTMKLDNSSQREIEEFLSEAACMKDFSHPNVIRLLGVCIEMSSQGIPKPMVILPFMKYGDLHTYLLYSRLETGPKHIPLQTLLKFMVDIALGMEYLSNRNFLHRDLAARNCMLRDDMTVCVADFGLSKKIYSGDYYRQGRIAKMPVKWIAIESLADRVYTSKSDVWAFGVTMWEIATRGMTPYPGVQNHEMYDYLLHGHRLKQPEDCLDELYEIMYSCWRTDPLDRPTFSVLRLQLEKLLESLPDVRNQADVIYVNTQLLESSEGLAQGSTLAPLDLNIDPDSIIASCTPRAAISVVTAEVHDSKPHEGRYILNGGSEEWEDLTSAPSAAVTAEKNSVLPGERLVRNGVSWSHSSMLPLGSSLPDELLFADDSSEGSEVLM
Method: (§1) TR-FRET kinase assays are performed under standardized conditions: various individual kinases are incubated with 50 nM of kinase substrate BRB1 labeled with the TR-FRET acceptor dye ULight (PerkinElmer) and 200 micromolar ATP in 10 μL of kinase assay buffer (50 mM HEPES pH7.5, 10 mM MgCl2, 3 mM MnCl2, 1 mM EGTA, 2 mM DTT and 0.01% Tween-20) for 2 hours at room temperature. Reactions are stopped with EDTA, and anti-phospho-tyrosine antibodies (clone PT66) labeled with the TR-FRET europium chelate donor dye are added to a final concentration of 2 nM in a final volume of 20 μL. The TR-FRET signal emitted at 665 nm is read one hour after the addition of antibodies using a TR-FRET plate reader such as the Envision® Multilabel Plate reader (PerkinElmer). The emitted signal at 665 nm is proportional to the extent of peptide phosphorylation, Control reactions indicative of background are performed excluding ATP from the reaction.
(§2) Assay conditions are identical to those used described for FIG. 1.

[2] = biological target: T2, ZAP70 (Homo sapiens, UniProt P43403); assay: TR-FRET kinase assay, ZAP70; settings: Kinase Concentration 4 nM; 50 nM ULight-labeled substrate, 200 micromolar ATP, 2 hours
T2 sequence (P43403 1-619): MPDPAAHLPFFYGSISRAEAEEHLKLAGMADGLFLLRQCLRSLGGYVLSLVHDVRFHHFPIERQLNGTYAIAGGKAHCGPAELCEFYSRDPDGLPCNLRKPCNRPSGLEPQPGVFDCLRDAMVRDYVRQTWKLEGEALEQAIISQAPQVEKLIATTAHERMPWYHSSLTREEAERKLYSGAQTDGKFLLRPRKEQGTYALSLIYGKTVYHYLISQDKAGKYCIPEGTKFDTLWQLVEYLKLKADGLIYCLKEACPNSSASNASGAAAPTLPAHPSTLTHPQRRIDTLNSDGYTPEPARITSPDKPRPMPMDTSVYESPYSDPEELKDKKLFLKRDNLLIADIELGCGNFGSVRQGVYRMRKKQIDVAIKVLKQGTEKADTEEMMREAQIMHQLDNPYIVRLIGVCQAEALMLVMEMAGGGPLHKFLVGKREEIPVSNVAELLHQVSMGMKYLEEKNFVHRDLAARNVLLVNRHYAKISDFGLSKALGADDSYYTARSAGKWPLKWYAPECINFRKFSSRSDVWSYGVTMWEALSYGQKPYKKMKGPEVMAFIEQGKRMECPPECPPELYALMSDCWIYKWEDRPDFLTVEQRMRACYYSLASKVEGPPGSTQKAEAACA
Method: as §1, §2

[3] = biological target: EphA4 (Homo sapiens, UniProt P54764); assay: TR-FRET kinase assay, EphA4; settings: Kinase Concentration 0.5 nM; 50 nM ULight-labeled substrate, 200 micromolar ATP, 2 hours
Method: as §1, §2

[4] = biological target: ACK (Homo sapiens, UniProt Q07912); assay: TR-FRET kinase assay, ACK; settings: Kinase Concentration 20 nM; 50 nM ULight-labeled substrate, 200 micromolar ATP, 2 hours
Method: as §1, §2

[5] = biological target: FGFR3 (Homo sapiens, UniProt P22607); assay: TR-FRET kinase assay, FGFR3; settings: Kinase Concentration 0.25 nM; 50 nM ULight-labeled substrate, 200 micromolar ATP, 2 hours
Method: as §1, §2

[6] = biological target: FGFR4 (Homo sapiens, UniProt P22455); assay: TR-FRET kinase assay, FGFR4; settings: Kinase Concentration 3 nM; 50 nM ULight-labeled substrate, 200 micromolar ATP, 2 hours
Method: as §1, §2

[7] = biological target: BTK (Homo sapiens, UniProt Q06187); assay: TR-FRET kinase assay, BTK; settings: Kinase Concentration 0.25 nM; 50 nM ULight-labeled substrate, 200 micromolar ATP, 2 hours
Method: as §1, §2

[8] = biological target: LTK (Homo sapiens, UniProt P29376); assay: TR-FRET kinase assay, LTK; settings: Kinase Concentration 1 nM; 50 nM ULight-labeled substrate, 200 micromolar ATP, 2 hours
Method: as §1, §2

[9] = biological target: SYK (Homo sapiens, UniProt P43405); assay: TR-FRET kinase assay, SYK; settings: Kinase Concentration 0.5 nM; 50 nM ULight-labeled substrate, 200 micromolar ATP, 2 hours
Method: as §1, §2

[10] = biological target: FGFR1 (Homo sapiens, UniProt P11362); assay: TR-FRET kinase assay, FGFR1; settings: Kinase Concentration 0.5 nM; 50 nM ULight-labeled substrate, 200 micromolar ATP, 2 hours
Method: as §1, §2

Chain of LTK (P29376 17-864, species assumed): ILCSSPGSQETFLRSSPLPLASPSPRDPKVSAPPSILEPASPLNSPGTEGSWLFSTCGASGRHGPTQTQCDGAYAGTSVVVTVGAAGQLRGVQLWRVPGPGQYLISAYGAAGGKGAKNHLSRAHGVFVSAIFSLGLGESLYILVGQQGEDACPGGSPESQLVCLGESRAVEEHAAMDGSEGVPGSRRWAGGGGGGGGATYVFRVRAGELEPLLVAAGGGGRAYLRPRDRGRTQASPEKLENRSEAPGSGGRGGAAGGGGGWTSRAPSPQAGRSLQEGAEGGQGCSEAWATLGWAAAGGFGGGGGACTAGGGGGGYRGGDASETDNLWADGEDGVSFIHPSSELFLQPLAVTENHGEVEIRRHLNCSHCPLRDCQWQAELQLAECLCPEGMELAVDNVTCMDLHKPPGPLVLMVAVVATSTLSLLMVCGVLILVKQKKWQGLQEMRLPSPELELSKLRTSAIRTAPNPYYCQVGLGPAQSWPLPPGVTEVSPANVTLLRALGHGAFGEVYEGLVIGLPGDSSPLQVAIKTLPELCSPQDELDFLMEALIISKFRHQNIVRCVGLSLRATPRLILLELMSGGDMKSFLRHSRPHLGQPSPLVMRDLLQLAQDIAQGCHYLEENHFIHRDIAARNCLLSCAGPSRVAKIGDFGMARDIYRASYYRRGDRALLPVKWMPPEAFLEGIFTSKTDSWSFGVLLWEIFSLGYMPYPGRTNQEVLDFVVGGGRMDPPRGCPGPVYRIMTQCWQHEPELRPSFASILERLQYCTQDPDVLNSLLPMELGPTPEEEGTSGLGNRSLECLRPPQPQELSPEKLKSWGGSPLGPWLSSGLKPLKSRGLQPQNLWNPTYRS
Chain of ACK (Q07912 whole entry): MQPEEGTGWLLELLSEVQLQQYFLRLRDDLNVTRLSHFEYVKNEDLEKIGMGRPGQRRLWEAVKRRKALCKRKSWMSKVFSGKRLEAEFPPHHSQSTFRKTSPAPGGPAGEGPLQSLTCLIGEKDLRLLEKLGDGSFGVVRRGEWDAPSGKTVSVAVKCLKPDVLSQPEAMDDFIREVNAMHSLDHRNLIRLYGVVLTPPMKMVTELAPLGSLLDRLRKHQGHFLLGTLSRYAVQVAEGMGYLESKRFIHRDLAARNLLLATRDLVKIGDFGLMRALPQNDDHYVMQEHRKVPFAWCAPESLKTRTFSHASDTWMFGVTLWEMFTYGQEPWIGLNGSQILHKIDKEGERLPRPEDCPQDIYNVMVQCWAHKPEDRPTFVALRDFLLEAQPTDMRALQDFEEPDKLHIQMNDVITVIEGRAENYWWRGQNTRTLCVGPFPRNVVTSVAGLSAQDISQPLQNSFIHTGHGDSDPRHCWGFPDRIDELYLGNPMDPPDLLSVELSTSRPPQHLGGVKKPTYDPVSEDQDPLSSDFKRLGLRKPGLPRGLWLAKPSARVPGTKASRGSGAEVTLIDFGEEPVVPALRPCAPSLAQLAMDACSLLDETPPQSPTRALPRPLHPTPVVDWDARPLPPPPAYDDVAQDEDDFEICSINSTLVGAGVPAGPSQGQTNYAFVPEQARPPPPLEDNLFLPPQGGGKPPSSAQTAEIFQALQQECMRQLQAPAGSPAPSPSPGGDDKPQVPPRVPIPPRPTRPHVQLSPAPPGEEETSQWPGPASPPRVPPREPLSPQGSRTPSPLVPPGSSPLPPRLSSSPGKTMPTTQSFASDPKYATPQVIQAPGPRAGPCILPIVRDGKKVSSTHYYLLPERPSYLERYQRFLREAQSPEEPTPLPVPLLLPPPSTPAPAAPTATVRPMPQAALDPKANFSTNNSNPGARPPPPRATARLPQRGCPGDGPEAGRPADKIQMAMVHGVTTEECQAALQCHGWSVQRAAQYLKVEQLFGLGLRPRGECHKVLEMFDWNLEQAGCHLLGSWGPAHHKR
Chain of BTK (Q06187 whole entry, species assumed): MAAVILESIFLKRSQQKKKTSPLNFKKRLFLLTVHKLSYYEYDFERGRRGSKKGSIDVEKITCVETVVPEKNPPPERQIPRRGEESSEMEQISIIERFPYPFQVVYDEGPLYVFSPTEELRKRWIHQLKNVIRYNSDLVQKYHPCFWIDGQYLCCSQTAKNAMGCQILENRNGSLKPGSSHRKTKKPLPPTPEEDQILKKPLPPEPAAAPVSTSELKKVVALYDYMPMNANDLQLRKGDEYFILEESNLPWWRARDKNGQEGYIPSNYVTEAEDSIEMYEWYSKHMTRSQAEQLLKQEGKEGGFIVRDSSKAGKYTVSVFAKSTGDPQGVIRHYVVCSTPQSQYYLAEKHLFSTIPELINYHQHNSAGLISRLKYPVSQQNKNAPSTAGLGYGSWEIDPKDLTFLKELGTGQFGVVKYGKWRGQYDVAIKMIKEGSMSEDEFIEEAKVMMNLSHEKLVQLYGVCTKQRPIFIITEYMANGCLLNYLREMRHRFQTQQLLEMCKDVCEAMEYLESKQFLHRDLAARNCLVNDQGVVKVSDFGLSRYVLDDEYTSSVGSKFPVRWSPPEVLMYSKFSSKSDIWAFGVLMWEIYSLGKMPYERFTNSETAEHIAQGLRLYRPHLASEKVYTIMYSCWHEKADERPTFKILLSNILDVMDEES
Chain of EphA4 (P54764 20-986, species assumed): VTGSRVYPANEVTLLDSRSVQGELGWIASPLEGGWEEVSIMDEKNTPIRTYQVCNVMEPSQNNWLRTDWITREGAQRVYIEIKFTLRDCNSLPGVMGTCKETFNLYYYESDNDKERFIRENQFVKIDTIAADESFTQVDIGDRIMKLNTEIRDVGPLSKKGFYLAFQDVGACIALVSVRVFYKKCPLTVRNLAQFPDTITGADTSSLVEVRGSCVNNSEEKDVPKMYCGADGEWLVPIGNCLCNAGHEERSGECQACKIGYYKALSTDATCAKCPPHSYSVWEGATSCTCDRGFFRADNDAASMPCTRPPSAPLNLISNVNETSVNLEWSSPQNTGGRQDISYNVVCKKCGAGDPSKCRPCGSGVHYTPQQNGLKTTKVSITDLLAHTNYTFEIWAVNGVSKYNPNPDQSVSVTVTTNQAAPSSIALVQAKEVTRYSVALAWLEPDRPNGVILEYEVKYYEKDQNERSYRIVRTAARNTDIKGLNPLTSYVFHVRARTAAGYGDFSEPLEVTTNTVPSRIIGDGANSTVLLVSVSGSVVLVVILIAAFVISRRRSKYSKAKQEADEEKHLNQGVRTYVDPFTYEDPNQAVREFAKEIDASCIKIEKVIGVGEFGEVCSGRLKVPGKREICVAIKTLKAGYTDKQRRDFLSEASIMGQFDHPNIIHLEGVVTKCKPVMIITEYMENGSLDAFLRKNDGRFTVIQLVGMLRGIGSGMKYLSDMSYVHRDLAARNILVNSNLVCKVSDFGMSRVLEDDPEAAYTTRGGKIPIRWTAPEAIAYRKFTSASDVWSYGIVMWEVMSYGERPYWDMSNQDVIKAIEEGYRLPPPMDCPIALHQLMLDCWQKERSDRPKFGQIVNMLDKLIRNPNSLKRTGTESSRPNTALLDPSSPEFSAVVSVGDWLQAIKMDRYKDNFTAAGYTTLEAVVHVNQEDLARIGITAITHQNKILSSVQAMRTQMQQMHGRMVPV
Chain of FGFR3 (P22607 23-806, species assumed): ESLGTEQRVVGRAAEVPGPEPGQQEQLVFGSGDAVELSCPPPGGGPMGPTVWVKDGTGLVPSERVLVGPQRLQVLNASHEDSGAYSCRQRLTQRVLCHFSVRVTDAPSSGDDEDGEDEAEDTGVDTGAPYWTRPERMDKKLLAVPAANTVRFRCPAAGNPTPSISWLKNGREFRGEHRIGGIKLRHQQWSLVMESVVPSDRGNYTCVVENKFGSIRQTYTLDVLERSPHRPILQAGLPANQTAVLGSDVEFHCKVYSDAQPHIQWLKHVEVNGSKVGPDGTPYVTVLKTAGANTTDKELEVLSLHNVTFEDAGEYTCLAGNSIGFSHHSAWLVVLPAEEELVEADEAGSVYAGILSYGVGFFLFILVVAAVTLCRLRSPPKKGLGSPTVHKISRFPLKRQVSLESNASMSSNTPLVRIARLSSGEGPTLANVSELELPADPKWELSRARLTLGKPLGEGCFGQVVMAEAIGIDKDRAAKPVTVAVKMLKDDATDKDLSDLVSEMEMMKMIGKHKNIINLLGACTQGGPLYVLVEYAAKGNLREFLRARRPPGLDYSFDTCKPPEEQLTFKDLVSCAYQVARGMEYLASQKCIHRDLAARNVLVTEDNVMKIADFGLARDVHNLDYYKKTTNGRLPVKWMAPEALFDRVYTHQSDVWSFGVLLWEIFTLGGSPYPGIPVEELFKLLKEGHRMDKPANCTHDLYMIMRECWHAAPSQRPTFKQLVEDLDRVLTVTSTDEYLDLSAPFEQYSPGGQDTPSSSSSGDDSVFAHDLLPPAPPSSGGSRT
Chain of FGFR1 (P11362 22-822, species assumed): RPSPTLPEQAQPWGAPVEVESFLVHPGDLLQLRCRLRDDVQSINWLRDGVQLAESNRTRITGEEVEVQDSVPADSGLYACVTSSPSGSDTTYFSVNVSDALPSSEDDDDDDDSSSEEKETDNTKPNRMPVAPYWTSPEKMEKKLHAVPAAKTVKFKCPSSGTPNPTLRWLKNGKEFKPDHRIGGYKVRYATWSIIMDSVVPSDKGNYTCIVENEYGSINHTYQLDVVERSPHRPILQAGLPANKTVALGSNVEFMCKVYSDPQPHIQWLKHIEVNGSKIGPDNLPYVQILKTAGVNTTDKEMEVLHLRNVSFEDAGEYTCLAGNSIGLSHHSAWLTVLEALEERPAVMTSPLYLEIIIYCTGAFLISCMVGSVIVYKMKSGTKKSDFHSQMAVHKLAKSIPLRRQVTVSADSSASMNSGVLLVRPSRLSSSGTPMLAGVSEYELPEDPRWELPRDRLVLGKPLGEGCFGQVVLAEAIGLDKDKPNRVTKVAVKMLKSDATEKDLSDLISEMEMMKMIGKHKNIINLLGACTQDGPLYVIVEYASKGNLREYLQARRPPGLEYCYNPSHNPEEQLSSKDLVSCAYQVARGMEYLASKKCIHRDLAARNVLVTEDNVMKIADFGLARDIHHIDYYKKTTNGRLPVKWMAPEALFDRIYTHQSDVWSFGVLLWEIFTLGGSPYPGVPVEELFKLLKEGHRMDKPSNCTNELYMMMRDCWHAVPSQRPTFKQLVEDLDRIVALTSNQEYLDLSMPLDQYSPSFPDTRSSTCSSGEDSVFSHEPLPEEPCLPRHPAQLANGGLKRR

Sequence: C AYE AYE AYE K EYA EYA EYA K AYA EYE R (CAYEAYEAYEKEYAEYAEYAKAYAEYER; tyrosine kinase substrate peptide) [BRB1]
- Signal to Noise ratio with BRB1 Peptide [1]: 12.9
- Signal to Noise ratio with BRB1 Peptide [2]: 7.6
- Signal to Noise ratio with BRB1 Peptide [3]: 31.5
- Signal to Noise ratio with BRB1 Peptide [4]: 17.3
- Signal to Noise ratio with BRB1 Peptide [5]: 24.4
- Signal to Noise ratio with BRB1 Peptide [6]: 17.7
- Signal to Noise ratio with BRB1 Peptide [7]: 6.8
- Signal to Noise ratio with BRB1 Peptide [8]: 13.7
- Signal to Noise ratio with BRB1 Peptide [9]: 24.6
- Signal to Noise ratio with BRB1 Peptide [10]: 26.4
